# Positions count from the first letter of the chain named.
# T1: recombinant human CD123-Fc (human, UniProt P26951 19-305)
# T1 construct: not shown: Fc part of CD123-Fc
# T1 sequence: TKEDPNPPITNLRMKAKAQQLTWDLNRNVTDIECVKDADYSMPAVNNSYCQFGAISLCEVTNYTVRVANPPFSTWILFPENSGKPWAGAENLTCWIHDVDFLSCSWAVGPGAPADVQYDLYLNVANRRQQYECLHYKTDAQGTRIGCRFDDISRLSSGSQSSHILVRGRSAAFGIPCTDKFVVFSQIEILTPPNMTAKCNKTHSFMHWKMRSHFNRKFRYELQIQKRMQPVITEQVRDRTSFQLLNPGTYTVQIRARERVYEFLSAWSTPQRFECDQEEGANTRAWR
# T2: AFP p26 (human, UniProt P02771 381-609)
# T2 construct: The construct used is not described
# T2 sequence: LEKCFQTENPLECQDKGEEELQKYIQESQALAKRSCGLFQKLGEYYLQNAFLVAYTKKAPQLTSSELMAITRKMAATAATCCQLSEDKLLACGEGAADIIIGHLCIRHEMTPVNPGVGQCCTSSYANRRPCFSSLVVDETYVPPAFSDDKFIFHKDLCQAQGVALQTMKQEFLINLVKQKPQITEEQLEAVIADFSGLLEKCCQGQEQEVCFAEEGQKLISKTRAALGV
# B1: SEQ ID NO 638 (designed binder)
# chain: MGSWWEFEDRLWAIDRRLMALGGSEAELAVFEQMIAHFEQILQVYKGKGNPEVEALHFEAHAIGMELAAYRHN
# B2: SEQ ID NO 629 (designed binder)
# chain: MGSWFEFPYRLEAIEERLYALGGSEAELAQFEQFIAWFEMDLQDYKGKGNPEVEALWFEANAIVEELDAYRHN
# B3: SEQ ID NO 635 (designed binder)
# chain: MGSWYEFYWRLEAIEERLWALGGSEAELAEFEKAIATFEDQLQTYKGKGNPEVEALETEALAIHAELEAYRHN
# B4: SEQ ID NO 642 (designed binder)
# chain: MGSWYEFEDRLAAIEARLWALGGSEAELADFEEEIAYFEHGLQWYKGKGNPEVEALESEAMAIIDELHAYRHN
# B5: SEQ ID NO 632 (designed binder)
# chain: MGSWDEFDARLWAIEERLWALGGSEAELAEFEFMIAAFEDVLQEYKGKGNPEVEALMGEANAIVMELDAYRHN
# B6: SEQ ID NO 631 (designed binder)
# chain: MGSWVEFWDRLDAIEERLWALGGSEAELAEFEFMIAMFEQHLQEYKGKGNPEVEALIPEAGAIDKELTAYRHN
# B7: SEQ ID NO 630 (designed binder)
# chain: MGSWVEFYDRLEAIEIRLWALGGSEAELADFESFIAHFEDDLQAYKGKGNPEVEALMDEANAIVFELDAYRHN
# B8: SEQ ID NO 643 (designed binder)
# chain: MGSWWEFSWRLEAIETRLDALGGSEAELAFFEMDIAWFEQDLQLYKGKGNPEVEALEEEAYAIYEELEAYRHN
# B9: SEQ ID NO 634 (designed binder)
# chain: MGSWHEFIWRLDAIEERLWALGGSEAELAWFETEIATFEAQLQDYKGKGNPEVEALEWEAIAIAWELDAYRHN
# B10: SEQ ID NO 651 (designed binder)
# chain: MGSWVEFFWRLDAIEDRLWALGGSEAELANFEFEIADFEAWLQKYKGKGNPEVEALHSEADAIQLELRAYRHN
# B11: SEQ ID NO 637 (designed binder)
# chain: MGSWWEFEDRLWAIEQRLDALGGSEAELAVFENSIAKFEDMLQVYKGKGNPEVEALHEEADAIIWELYAYRHN
# B12: SEQ ID NO 627 (designed binder)
# chain: MGSWYEFEQRLGAIEERLWALGGSEAELAAFEDIIAYFEYQLQSYKGKGNPEVEALDEEAWAIDDELWAYRHN
# B13: SEQ ID NO 641 (designed binder)
# chain: MGSWWEFYDRLTAIEARLWALGGSEAELADFEEGIADFEYDLQDYKGKGNPEVEALFWEAWAIQSELTAYRHN
# B14: SEQ ID NO 628 (designed binder)
# chain: MGSWWEFEQRLDAIETRLWALGGSEAELAYFEHIIADFEDELQIYKGKGNPEVEALGWEAFAIDGELTAYRHN
# B15: SEQ ID NO 652 (designed binder)
# chain: MGSWVEFYNRLDAIENRLWALGGSEAELAFFEELIAQFEFALQDYKGKGNPEVEALEDEADAIWEELMAYRHN
# B16: SEQ ID NO 649 (designed binder)
# chain: MGSWWEFTDRLDAIFDRLWALGGSEAELAAFEESIAIFEQDLQYYKGKGNPEVEALEYEANAIQYELEAYRHN
# B17: SEQ ID NO 645 (designed binder)
# chain: MGSWFEFEERLNAISWRLHALGGSEAELAYFEEDIAWFEDDLQFYKGKGNPEVEALENEAYAIWEELDAYRHN
# B18: SEQ ID NO 647 (designed binder)
# chain: MGSWAEFDDRLEAIEYRLHALGGSEAELAWFEEGIAGFEHALQSYKGKGNPEVEALETEAGAINEELWAYRHN
# B19: SEQ ID NO 650 (designed binder)
# chain: MGSWWEFTDRLEAIEDRLWALGGSEAELAHFEDSIAQFEQELQWYKGKGNPEVEALADEADAIESELHAYRHN
# B20: SEQ ID NO 648 (designed binder)
# chain: MGSWDEFEERLQAIEYRLWALGGSEAELAWFEEVIAQFEYDLQKYKGKGNPEVEALSTEAQAIQDELWAYRHN
# B21: SEQ ID NO 646 (designed binder)
# chain: MGSWFEFEERLEAIIYRLWALGGSEAELAMFEESIAWFESDLQQYKGKGNPEVEALEYEAMAISKELKAYRHN
# B22: SEQ ID NO 633 (designed binder)
# chain: MGSWYEFWRRLDAIEERLWALGGSEAELAMFETDIAGFEWMLQLYKGKGNPEVEALEHEAWAINSELDAYRHN
# B23: SEQ ID NO 640 (designed binder)
# chain: MGSWAEFEDRLAAIERRLEALGGSEAELADFESSIAWFEPDLQYYKGKGNPEVEALMYEAEAIFSELYAYRHN
# B24: SEQ ID NO 639 (designed binder)
# chain: MGSWWEFLDRLEAIEYRLQALGGSEAELAVFEWEIAMFEDHLQGYKGKGNPEVEALHSEAHAIISELSAYRHN
# B25: SEQ ID NO 636 (designed binder)
# chain: MGSWFEFQWRLEAIEDRLWALGGSEAELAEFETIIAGFEEQLQVYKGKGNPEVEALEEEAMAIQTELHAYRHN
# B26: SEQ ID NO 644 (designed binder)
# chain: MGSWEEFFFRLEAIDDRLYALGGSEAELALFEEVIAYFEQDLQWYKGKGNPEVEALYVEAYAIQEELYAYRHN
# B27: SEQ ID NO 867 (designed binder)
# chain: MGSWIAFKDHLAIIKQRLEALGGSEAELARFEFEIAWFEWMLQYYKGKGNPEVEALRKEAAAIRDELQAYRHN
# B28: SEQ ID NO 870 (designed binder)
# chain: MGSWKNFKLELALIKSKLEALGGSEAELAQFEADIAFFEWSLQWYKGKGNPEVEALRKEAAAIRDELQAYRHN
# B29: SEQ ID NO 871 (designed binder)
# chain: MGSWHSFKQDLAYIKYLLEALGGSEAELAQFEELIAFFEYYLQTYKGKGNPEVEALRKEAAAIRDELQAYRHN
# B30: SEQ ID NO 868 (designed binder)
# chain: MGSWIHFKNDLAVIKDELEALGGSEAELARFEIMIAWFEDALQWYKGKGNPEVEALRKEAAAIRDELQAYRHN
# B31: SEQ ID NO 864 (designed binder)
# chain: MGSWSIFKDDLAVIKERLEALGGSEAELAHFEQDIAWFEHLLQYYKGKGNPEVEALRKEAAAIRDELQAYRHN
# B32: SEQ ID NO 865 (designed binder)
# chain: B31 chain with I6V, V13Q, E16D, H30Q, Q33L, H40Y, L41V, Y44F
# B33: SEQ ID NO 863 (designed binder)
# chain: B31 chain with S5E, V13S, E16K, R17V, H30L, Q33S, H40L, L41M
# B34: SEQ ID NO 858 (designed binder)
# chain: B27 chain with I5F, A6T, H10D, I13Q, Q16N, R30N, F33M, E34S, W40F
# B35: SEQ ID NO 866 (designed binder)
# chain: MGSWAVFKDSLAHIKDVLEALGGSEAELALFEMDIAWFEYVLQDYKGKGNPEVEALRKEAAAIRDELQAYRHN
# B36: SEQ ID NO 874 (designed binder)
# chain: MGSWNNFKSSLASIKQVLEALGGSEAELAVFELQIAHFERELQYYKGKGNPEVEALRKEAAAIRDELQAYRHN
# B37: SEQ ID NO 869 (designed binder)
# chain: MGSWMVFKQDLAEIKANLEALGGSEAELADFEFAIAWFEYELQWYKGKGNPEVEALRKEAAAIRDELQAYRHN
# B38: SEQ ID NO 872 (designed binder)
# chain: MGSWVVFKSSLAQIKILLEALGGSEAELAIFEVKIAHFEQELQEYKGKGNPEVEALRKEAAAIRDELQAYRHN
# B39: SEQ ID NO 873 (designed binder)
# chain: B38 chain with V5D, V6Q, S9N, Q13S, I16R, L17V, Q40H, E41F, E44Q
# B40: SEQ ID NO 857 (designed binder)
# chain: MGSWYTFKGSLAEIKNRLEALGGSEAELAMFESDIAWFEFMLQFYKGKGNPEVEALRKEAAAIRDELQAYRHN
# Target: T1, recombinant human CD123-Fc
# Test: phage ELISA, A450 target/A450 IgG1-Fc
# In short: (§1)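 Individual phagemid colonies picked from panning output were rescued in 96-well format using VCSM13 helper phage. Plates received 1.3 microg/ml goat anti-human IgG1-Fc antibody, followed by 5 nM recombinant human target or IgG1-Fc, and then 50 microl of phage diluted 5× in ELISA blocking buffer. An HRP-conjugated anti-M13 antibody detected binding at 450 nm. For each clone, the ELISA ratio is the absorbance with target divided by that with IgG1-Fc, averaged over every screened well containing the clone.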
row,Binder,ELISA_avg [ratio]
1,B1,4.6
2,B2,3.1
3,B3,3.7
4,B4,3.8
5,B5,4.3
6,B6,10
7,B7,4
8,B8,3.3
9,B9,3.3
10,B10,4
11,B11,4.4
12,B12,10.6
13,B13,3.2
14,B14,4.7
15,B15,6.9
16,B16,7.5
17,B17,13
18,B18,5.8
19,B19,16.6
20,B20,3.8
21,B21,3.7
22,B22,3.6
23,B23,4.2
24,B24,3.1
25,B25,3.4
26,B26,3.2

# Target: T2, AFP p26
# Test: phage ELISA, A450 target/A450 IgG1-Fc
# In short: as §1
row,Binder,ELISA_avg [ratio]
1,B27,29.9
2,B28,20.6
3,B29,25.6
4,B30,17.9
5,B31,25.6
6,B32,30.3
7,B33,27.9
8,B34,30.8
9,B35,24.1
10,B36,24.1
11,B37,17.8
12,B38,8.6
13,B39,15.6
14,B40,32.3

# Source: US20230125550A1 (ARCELLX, published 2023)
